In test [1] the target is Glu-plasminogen (Plg) (human). The test can be described thus: ELISA.
The target in test [2] is Fibrinogen (FG), human plasma, plasminogen-depleted (human) (UniProt P02671). The test can be described thus: ELISA.
UniProt P02671, sequence (P02671 36-866, chain 1 of 3): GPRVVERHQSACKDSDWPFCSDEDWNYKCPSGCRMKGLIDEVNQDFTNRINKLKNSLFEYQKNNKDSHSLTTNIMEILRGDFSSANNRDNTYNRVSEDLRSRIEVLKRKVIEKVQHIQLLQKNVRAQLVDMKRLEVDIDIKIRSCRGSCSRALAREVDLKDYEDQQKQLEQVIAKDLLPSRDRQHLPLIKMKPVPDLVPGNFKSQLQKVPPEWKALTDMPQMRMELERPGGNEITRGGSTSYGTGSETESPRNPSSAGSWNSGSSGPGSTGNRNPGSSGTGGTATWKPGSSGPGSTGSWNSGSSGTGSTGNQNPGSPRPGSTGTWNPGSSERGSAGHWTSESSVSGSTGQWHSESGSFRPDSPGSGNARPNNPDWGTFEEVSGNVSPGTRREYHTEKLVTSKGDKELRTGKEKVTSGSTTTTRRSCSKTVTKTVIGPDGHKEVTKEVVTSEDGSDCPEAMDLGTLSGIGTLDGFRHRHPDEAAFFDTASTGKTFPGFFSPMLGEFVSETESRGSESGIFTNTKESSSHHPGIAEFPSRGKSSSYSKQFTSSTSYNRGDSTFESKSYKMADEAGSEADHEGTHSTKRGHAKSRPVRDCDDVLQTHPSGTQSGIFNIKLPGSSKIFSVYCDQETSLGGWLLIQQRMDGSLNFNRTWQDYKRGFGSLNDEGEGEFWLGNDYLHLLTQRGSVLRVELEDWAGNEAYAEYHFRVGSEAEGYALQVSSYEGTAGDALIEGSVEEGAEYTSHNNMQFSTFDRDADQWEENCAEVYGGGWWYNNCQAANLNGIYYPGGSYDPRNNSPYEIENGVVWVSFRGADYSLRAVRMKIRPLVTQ
UniProt P02671, sequence (P02675 45-491, chain 2 of 3, further chain): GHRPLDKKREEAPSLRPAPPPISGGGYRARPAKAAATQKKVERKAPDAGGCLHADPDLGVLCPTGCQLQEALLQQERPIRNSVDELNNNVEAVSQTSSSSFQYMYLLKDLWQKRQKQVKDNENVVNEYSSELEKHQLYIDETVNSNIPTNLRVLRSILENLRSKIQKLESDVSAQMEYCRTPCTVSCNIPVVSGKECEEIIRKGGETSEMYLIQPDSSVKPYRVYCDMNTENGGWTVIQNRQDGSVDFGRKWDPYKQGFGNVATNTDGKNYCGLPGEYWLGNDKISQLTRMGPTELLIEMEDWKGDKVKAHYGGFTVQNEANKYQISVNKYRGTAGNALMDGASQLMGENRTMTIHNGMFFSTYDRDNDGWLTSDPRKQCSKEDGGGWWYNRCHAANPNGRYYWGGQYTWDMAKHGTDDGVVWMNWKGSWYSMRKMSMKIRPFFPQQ
UniProt P02671, sequence (P02679 27-453, chain 3 of 3, further chain): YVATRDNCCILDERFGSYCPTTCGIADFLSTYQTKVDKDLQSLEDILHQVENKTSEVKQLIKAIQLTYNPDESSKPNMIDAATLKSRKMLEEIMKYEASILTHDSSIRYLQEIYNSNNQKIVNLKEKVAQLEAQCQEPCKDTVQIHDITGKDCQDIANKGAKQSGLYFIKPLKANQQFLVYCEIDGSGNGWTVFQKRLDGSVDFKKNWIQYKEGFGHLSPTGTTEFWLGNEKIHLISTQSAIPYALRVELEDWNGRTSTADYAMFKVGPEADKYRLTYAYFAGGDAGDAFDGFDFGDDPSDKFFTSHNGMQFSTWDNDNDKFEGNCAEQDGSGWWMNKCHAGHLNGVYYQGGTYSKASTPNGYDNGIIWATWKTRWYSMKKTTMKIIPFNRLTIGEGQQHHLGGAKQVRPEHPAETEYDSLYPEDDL

Glu-plasminogen (Plg) (human), sequence (P00747 20-810): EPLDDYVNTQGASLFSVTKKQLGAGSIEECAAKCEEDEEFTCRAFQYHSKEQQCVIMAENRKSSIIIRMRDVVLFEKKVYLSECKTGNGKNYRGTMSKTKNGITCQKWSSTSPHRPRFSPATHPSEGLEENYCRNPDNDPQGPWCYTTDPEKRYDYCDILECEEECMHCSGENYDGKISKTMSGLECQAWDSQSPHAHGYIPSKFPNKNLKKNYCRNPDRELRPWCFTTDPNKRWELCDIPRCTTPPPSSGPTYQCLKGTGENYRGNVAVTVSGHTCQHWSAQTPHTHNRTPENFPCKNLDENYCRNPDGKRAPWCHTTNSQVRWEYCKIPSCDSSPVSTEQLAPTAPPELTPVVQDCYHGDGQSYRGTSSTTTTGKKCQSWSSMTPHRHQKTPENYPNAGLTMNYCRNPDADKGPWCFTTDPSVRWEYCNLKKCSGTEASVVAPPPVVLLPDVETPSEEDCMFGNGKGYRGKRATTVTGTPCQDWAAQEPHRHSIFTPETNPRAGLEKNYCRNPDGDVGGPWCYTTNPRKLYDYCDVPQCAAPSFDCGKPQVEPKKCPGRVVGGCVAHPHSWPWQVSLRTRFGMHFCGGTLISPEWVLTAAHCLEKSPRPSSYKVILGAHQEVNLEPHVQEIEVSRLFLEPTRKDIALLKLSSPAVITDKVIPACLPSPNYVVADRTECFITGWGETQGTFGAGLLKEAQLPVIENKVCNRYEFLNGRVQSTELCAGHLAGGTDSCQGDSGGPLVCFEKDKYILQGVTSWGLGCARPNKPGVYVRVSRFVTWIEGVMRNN

As a reminder, the Kd is the free concentration of one partner at which half of the binding sites on the other are occupied at equilibrium, for simple one-to-one binding. Take “Biotin-conjugated PTX3 (b-PTX3) (from UniProt P26022 18-381) (natural protein)”: the values for the Kd in test [1] and in test [2] were 66.7 nM and 31.2 nM, respectively.

These data come from paper PMC4451130.
